± gives the standard deviation of the averaged measurements or the uncertainty stated by the source.
Experiments:
[1] = duplex formation entropy ΔS (Van't Hoff fit of HRM Tm); higher = smaller entropy loss on duplex formation; conditions: temperature for dG: 50 °C, NaCl: 500 mM (unadjusted)
In short: (§1)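 DNA duplexes with phosphodiester or phosphorothioate strands (the latter mixed Rp/Sp) were annealed 1:1 and melted at 1–20 μM, with four replicate samples. Melting was in 1× NNE buffer (500 mM NaCl, pH 7.0) with 1× EvaGreen on a LightCycler96 (37 to 97°C, 0.1°C/s). Enthalpy and entropy come from a linear Van't Hoff regression of 1/Tm (Tm: peak of -dF/dT) against ln(CT/4), and free energy is extrapolated to 50°C. Values are not salt-adjusted, and errors are fit standard deviations.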

[2] = duplex melting temperature (HRM, EvaGreen); higher = more stable duplex
In short: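 Complementary DNA strands (phosphodiester or phosphorothioate, Rp/Sp mixtures) were annealed 1:1 at 25 μM, then diluted to 1–20 μM duplex in NNE buffer (500 mM NaCl, pH 7.0) with 1× EvaGreen. A LightCycler96 read fluorescence (470/514 nm) while heating from 37°C to 97°C at 0.1°C/s. Melting temperature was the peak of the negative dF/dT curve from the instrument software. Four replicates were prepared; those lacking a clear peak were excluded and the rest averaged.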

[3] = duplex formation enthalpy ΔH (Van't Hoff fit of HRM Tm); higher = less exothermic duplex formation; conditions: temperature for dG: 50 °C, NaCl: 500 mM (unadjusted)
In short: as §1

[4] = duplex formation free energy ΔG50 (Van't Hoff fit of HRM Tm); higher = less stable duplex; conditions: temperature for dG: 50 °C, NaCl: 500 mM (unadjusted)
In short: as §1

[5] = backbone: PO-PO (both strands phosphodiester DNA)
[6] = backbone: PS-PO (listed strand fully phosphorothioate, complement phosphodiester)
[7] = backbone: PS-PS (both strands fully phosphorothioate)
[8] = duplex concentration 1 µM, backbone: PO-PO (both strands phosphodiester DNA)
[9] = duplex concentration 1 µM, backbone: PS-PO (listed strand fully phosphorothioate, complement phosphodiester)
[10] = duplex concentration 2.5 µM, backbone: PO-PO (both strands phosphodiester DNA)
[11] = duplex concentration 2.5 µM, backbone: PS-PO (listed strand fully phosphorothioate, complement phosphodiester)
[12] = duplex concentration 5 µM, backbone: PO-PO (both strands phosphodiester DNA)
[13] = duplex concentration 5 µM, backbone: PS-PO (listed strand fully phosphorothioate, complement phosphodiester)
[14] = duplex concentration 7.5 µM, backbone: PO-PO (both strands phosphodiester DNA)
[15] = duplex concentration 7.5 µM, backbone: PS-PO (listed strand fully phosphorothioate, complement phosphodiester)
[16] = duplex concentration 7.5 µM, backbone: PS-PS (both strands fully phosphorothioate)
[17] = duplex concentration 10 µM, backbone: PO-PO (both strands phosphodiester DNA)
[18] = duplex concentration 10 µM, backbone: PS-PO (listed strand fully phosphorothioate, complement phosphodiester)
[19] = duplex concentration 10 µM, backbone: PS-PS (both strands fully phosphorothioate)
[20] = duplex concentration 15 µM, backbone: PO-PO (both strands phosphodiester DNA)
[21] = duplex concentration 15 µM, backbone: PS-PO (listed strand fully phosphorothioate, complement phosphodiester)
[22] = duplex concentration 15 µM, backbone: PS-PS (both strands fully phosphorothioate)
[23] = duplex concentration 20 µM, backbone: PO-PO (both strands phosphodiester DNA)
[24] = duplex concentration 20 µM, backbone: PS-PO (listed strand fully phosphorothioate, complement phosphodiester)
[25] = duplex concentration 20 µM, backbone: PS-PS (both strands fully phosphorothioate)
[26] = duplex concentration 1 µM, backbone: PS-PS (both strands fully phosphorothioate)
[27] = duplex concentration 2.5 µM, backbone: PS-PS (both strands fully phosphorothioate)
[28] = duplex concentration 5 µM, backbone: PS-PS (both strands fully phosphorothioate)

Sequence	duplex formation entropy ΔS [1, 5] [cal/mol/K]	duplex formation entropy ΔS [1, 6] [cal/mol/K]	duplex formation entropy ΔS [1, 7] [cal/mol/K]	duplex melting temperature [2, 8] [°C]	duplex melting temperature [2, 9] [°C]	duplex melting temperature [2, 10] [°C]	duplex melting temperature [2, 11] [°C]	duplex melting temperature [2, 12] [°C]	duplex melting temperature [2, 13] [°C]	duplex melting temperature [2, 14] [°C]	duplex melting temperature [2, 15] [°C]	duplex melting temperature [2, 16] [°C]	duplex melting temperature [2, 17] [°C]	duplex melting temperature [2, 18] [°C]	duplex melting temperature [2, 19] [°C]	duplex melting temperature [2, 20] [°C]	duplex melting temperature [2, 21] [°C]	duplex melting temperature [2, 22] [°C]	duplex melting temperature [2, 23] [°C]	duplex melting temperature [2, 24] [°C]	duplex melting temperature [2, 25] [°C]	duplex formation enthalpy ΔH [3, 5] [kcal/mol]	duplex formation enthalpy ΔH [3, 6] [kcal/mol]	duplex formation enthalpy ΔH [3, 7] [kcal/mol]	duplex formation free energy ΔG50 [4, 5] [kcal/mol]	duplex formation free energy ΔG50 [4, 6] [kcal/mol]	duplex formation free energy ΔG50 [4, 7] [kcal/mol]	duplex melting temperature [2, 26] [°C]	duplex melting temperature [2, 27] [°C]	duplex melting temperature [2, 28] [°C]
TAGACGCGGCCTCTTTCC	-258 ± 24	-272 ± 15	-272 ± 32	73.91 ± 0.44	67.6	74.76 ± 0.23	69 ± 0.71	76.52 ± 0.15	70.8 ± 0.46	77.7 ± 0.27	71.32 ± 0.62	66.47 ± 0.089	78.58 ± 0.21	72.01 ± 0.38	67.44 ± 0.059	79.83 ± 0.13	73.3 ± 0.19	68.13 ± 0.13	80.63 ± 0.22	73.84 ± 0.11	68.81 ± 0.13	-99.8 ± 8.6	-103 ± 5.1	-101 ± 11	-16.4 ± 0.68	-14.9 ± 0.32	-13.4 ± 0.56			
AGAGCGCCCTGCTGCC	-220 ± 9	-189 ± 7.4	-211 ± 5			76.76 ± 0.43	69.05 ± 0.38	78.81 ± 0.32	71.34 ± 0.29	79.83 ± 0.11	72.67 ± 0.34	67.29 ± 0.24	80.68 ± 0.17	73.6 ± 0.23	68.17 ± 0.076	81.9 ± 0.28	74.83 ± 0.1	69.33 ± 0.14	82.78 ± 0.25	75.7 ± 0.12	70.195 ± 0.058	-86.9 ± 3.2	-74.4 ± 2.6	-80.8 ± 1.7	-15.8 ± 0.28	-13.3 ± 0.17	-12.59 ± 0.085	61.69 ± 0.3	64.26 ± 0.22	66.24 ± 0.22
TTCGCGGTCTCCATTA	-146 ± 12	-167 ± 6.1	-157 ± 8.9				60.46 ± 0.26	68.99 ± 0.35	62.978 ± 0.054	70.45 ± 0.55	64.448 ± 0.036	59.57 ± 0.46	71.62 ± 0.38	65.33 ± 0.18	60.56 ± 0.28	73.14 ± 0.38	66.71 ± 0.2	61.77 ± 0.089	74.63 ± 0.43	67.75 ± 0.63	62.58 ± 0.18	-59.2 ± 4.2	-65.2 ± 2.1	-60.9 ± 3	-12 ± 0.26	-11.23 ± 0.091	-10.18 ± 0.084	51.49 ± 0.12	55.69 ± 0.27	58.1 ± 0.25
CTGTAAGGCGATATGTT	-202 ± 7.4	-192 ± 7.4	-201 ± 4.6	62.12 ± 0.3	54.19 ± 0.32	64 ± 0.26	57.45 ± 0.17	66.38 ± 0.2	59.646 ± 0.025	67.39 ± 0.14	60.55 ± 0.14	52.31 ± 0.059	68.42 ± 0.14	61.364 ± 0.05	53.15 ± 0.1	69.61 ± 0.1	62.62 ± 0.11	54.29 ± 0.068	70.55 ± 0.11	63.366 ± 0.049	55.12 ± 0.067	-77.7 ± 2.5	-72.7 ± 2.5	-73.8 ± 1.5	-12.5 ± 0.13	-10.76 ± 0.077	-8.999 ± 0.015	46.56 ± 0.46	49.35 ± 0.22	51.33 ± 0.25
CTTTTGTGCGGGTAGC	-179 ± 11	-176 ± 7.2	-156 ± 7.6	63.84 ± 0.57	56.1	65.75 ± 0.34	59.24 ± 0.32	68.14 ± 0.14	61.53 ± 0.35	69.35 ± 0.31	62.94 ± 0.29	56.37 ± 0.13	70.49 ± 0.15	63.93 ± 0.083	57.22 ± 0.12	71.94 ± 0.13	65.13 ± 0.068	58.45 ± 0.21	73.2 ± 0.36	65.98 ± 0.35	59.6 ± 0.74	-70.2 ± 3.7	-67.9 ± 2.4	-60 ± 2.5	-12.5 ± 0.21	-11.07 ± 0.095	-9.593 ± 0.049	48.71 ± 0.41	52.48 ± 0.25	55.08 ± 0.22
